Data on two substances can be found in patent publication US20140288007A1.

Assay [1] deals with KgpcatΔABM1 (enriched fraction from P. gingivalis mutant ECR368) (Porphyromonas gingivalis) (UniProt Q51817). Briefly: cell-based or functional assay.
The target is the same in assay [2]. As to the kind of experiment: enzyme inhibition kinetics (non-competitive, Ki′), chromogenic substrate GPKNa, secondary plot of Vmax observed against inhibitor concentration.

Where “and” joins values, the source holds several entries; their conditions need not be identical. Equal values may be shown once.

As to “recombinant RgpB propeptide (from UniProt P95493 25-229)”, the % Proteolytic Activity (GPKNa; inhibitor 50 mg/L) in assay [1] was 118%.
As a reminder, the Ki is a measure of affinity in units of concentration, obtained from inhibition or displacement. A low value points to higher affinity. Take “recombinant Kgp propeptide (from UniProt Q51817 25-1732)”: in assay [1], the inhibition of KgpcatΔABM1 activity, chromogenic substrate GPKNa was 75% and 60%; the inhibition of KgpcatΔABM1 enriched fraction activity, fluorescent BSA substrate (DQ BSA), 2 h was 66%. The Ki in assay [2] was found to be 2.01 µM.
